Patent publication US7119182 (University of California, dated 2006)
Square brackets hold non-standard residues; d marks the D form. Ends that are not written are not given here. * marks the point of attachment. SMeMpr = S-methyl-3-mercaptopropionic acid, CSCCC(=O)*; Cha = N[C@@H](CC1CCCCC1)C(=O)O; Mpa = O=C(O)CCS

Target: T1, human thrombin receptor (human, UniProt P25116 42-425)
T1 chain: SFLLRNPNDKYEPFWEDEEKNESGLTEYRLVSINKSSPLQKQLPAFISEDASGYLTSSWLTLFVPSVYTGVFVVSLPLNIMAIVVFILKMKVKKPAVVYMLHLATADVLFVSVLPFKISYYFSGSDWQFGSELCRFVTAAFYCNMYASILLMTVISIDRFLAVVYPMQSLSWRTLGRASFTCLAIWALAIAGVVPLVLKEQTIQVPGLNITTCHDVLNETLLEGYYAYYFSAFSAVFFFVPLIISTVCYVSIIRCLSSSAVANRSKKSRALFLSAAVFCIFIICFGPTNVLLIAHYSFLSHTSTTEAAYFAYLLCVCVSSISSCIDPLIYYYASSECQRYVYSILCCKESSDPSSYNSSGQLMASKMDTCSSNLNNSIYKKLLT
Experiment: cell-based or functional assay

Binder	EC50 (concentration required to elicit a 50% maximal aggregation), platelet aggregation [µM]
SFF[Cha]RA-NH2 (N-terminus assumed; SMILES C[C@H](NC(=O)[C@H](CCCNC(=N)N)NC(=O)[C@H](CC1CCCCC1)NC(=O)[C@H](Cc1ccccc1)NC(=O)[C@H](Cc1ccccc1)NC(=O)[C@@H](N)CO)C(N)=O) [SFF(Cha)RA-NH2]	1.4
SFLLLN-NH2 [SFLLLN-NH2]	44.9
SF[Cha][Cha]RK-NH2 (N-terminus assumed; SMILES N=C(N)NCCC[C@H](NC(=O)[C@H](CC1CCCCC1)NC(=O)[C@H](CC1CCCCC1)NC(=O)[C@H](Cc1ccccc1)NC(=O)[C@@H](N)CO)C(=O)N[C@@H](CCCCN)C(N)=O) [SF(Cha) (Cha)RK-NH2]	0.82
SFLLQN-NH2 [SFLLQN-NH2]	20.2
SFLLKN-NH2 [SFLLKN-NH2]	11.1

Target: T1, human thrombin receptor
Experiment: cell-based or functional assay
Remark: another data set of the same source

Binder	IC50 (50% inhibition of thrombin-induced platelet activation or aggregation) [µM]
[Mpa]F[Cha][Cha]RNPNDKY [Mpr-F(Cha) (Cha)RNPNDKY]	40
[Mpa]F[Cha][Cha]RGPNDK-NH2 (SMILES N=C(N)NCCC[C@H](NC(=O)[C@H](CC1CCCCC1)NC(=O)[C@H](CC1CCCCC1)NC(=O)[C@H](Cc1ccccc1)NC(=O)CCS)C(=O)NCC(=O)N1CCC[C@H]1C(=O)N[C@@H](CC(N)=O)C(=O)N[C@@H](CC(=O)O)C(=O)N[C@@H](CCCCN)C(N)=O) [Mpr-F(Cha) (Cha)RGPNDK-NH2]	20
[Mpa]F[Cha][Cha]RNPADK-NH2 (SMILES C[C@H](NC(=O)[C@@H]1CCCN1C(=O)[C@H](CC(N)=O)NC(=O)[C@H](CCCNC(=N)N)NC(=O)[C@H](CC1CCCCC1)NC(=O)[C@H](CC1CCCCC1)NC(=O)[C@H](Cc1ccccc1)NC(=O)CCS)C(=O)N[C@@H](CC(=O)O)C(=O)N[C@@H](CCCCN)C(N)=O) [Mpr-F(Cha) (Cha)RNPADK-NH2]	75
[Mpa]F[Cha][Cha]RNPND-NH2 (SMILES N=C(N)NCCC[C@H](NC(=O)[C@H](CC1CCCCC1)NC(=O)[C@H](CC1CCCCC1)NC(=O)[C@H](Cc1ccccc1)NC(=O)CCS)C(=O)N[C@@H](CC(N)=O)C(=O)N1CCC[C@H]1C(=O)N[C@@H](CC(N)=O)C(=O)N[C@@H](CC(=O)O)C(N)=O) [Mpr-F(Cha) (Cha)RNPND-NH2]	50
[Mpa]F[Cha][Cha]RKPNDK-NH2 [Mpr-F(Cha) (Cha)RKPNDK-NH2]	5
[Mpa]F[Cha][Cha]RNPNDKY-NH2 (SMILES N=C(N)NCCC[C@H](NC(=O)[C@H](CC1CCCCC1)NC(=O)[C@H](CC1CCCCC1)NC(=O)[C@H](Cc1ccccc1)NC(=O)CCS)C(=O)N[C@@H](CC(N)=O)C(=O)N1CCC[C@H]1C(=O)N[C@@H](CC(N)=O)C(=O)N[C@@H](CC(=O)O)C(=O)N[C@@H](CCCCN)C(=O)N[C@@H](Cc1ccc(O)cc1)C(N)=O) [Mpr-F(Cha) (Cha)RNPNDKY-NH2]	75
[Mpa]F[Cha][Cha]RNPNDKYE-NH2 (SMILES N=C(N)NCCC[C@H](NC(=O)[C@H](CC1CCCCC1)NC(=O)[C@H](CC1CCCCC1)NC(=O)[C@H](Cc1ccccc1)NC(=O)CCS)C(=O)N[C@@H](CC(N)=O)C(=O)N1CCC[C@H]1C(=O)N[C@@H](CC(N)=O)C(=O)N[C@@H](CC(=O)O)C(=O)N[C@@H](CCCCN)C(=O)N[C@@H](Cc1ccc(O)cc1)C(=O)N[C@@H](CCC(=O)O)C(N)=O) [Mpr-F(Cha) (Cha)RNPNDKYE-NH2]	80
[Mpa]F[Cha][Cha]RNPNDA-NH2 (SMILES C[C@H](NC(=O)[C@H](CC(=O)O)NC(=O)[C@H](CC(N)=O)NC(=O)[C@@H]1CCCN1C(=O)[C@H](CC(N)=O)NC(=O)[C@H](CCCNC(=N)N)NC(=O)[C@H](CC1CCCCC1)NC(=O)[C@H](CC1CCCCC1)NC(=O)[C@H](Cc1ccccc1)NC(=O)CCS)C(N)=O) [Mpr-F(Cha) (Cha)RNPNDA-NH2]	50
[Mpa]F[Cha][Cha]RNANDK-NH2 (SMILES C[C@H](NC(=O)[C@H](CC(N)=O)NC(=O)[C@H](CCCNC(=N)N)NC(=O)[C@H](CC1CCCCC1)NC(=O)[C@H](CC1CCCCC1)NC(=O)[C@H](Cc1ccccc1)NC(=O)CCS)C(=O)N[C@@H](CC(N)=O)C(=O)N[C@@H](CC(=O)O)C(=O)N[C@@H](CCCCN)C(N)=O) [Mpr-F(Cha) (Cha)RNANDK-NH2]	75
[Mpa]FLLRNPNC-NH2 (cysteine pairing not given here) [Mpr-FLLRNPNC-NH2]	400
[Mpa]F[Cha][Cha]RNPNAK-NH2 (SMILES C[C@H](NC(=O)[C@H](CC(N)=O)NC(=O)[C@@H]1CCCN1C(=O)[C@H](CC(N)=O)NC(=O)[C@H](CCCNC(=N)N)NC(=O)[C@H](CC1CCCCC1)NC(=O)[C@H](CC1CCCCC1)NC(=O)[C@H](Cc1ccccc1)NC(=O)CCS)C(=O)N[C@@H](CCCCN)C(N)=O) [Mpr-F(Cha) (Cha)RNPNAK-NH2]	> 100
[Mpa]F[Cha][Cha]RAPNDK-NH2 (SMILES C[C@H](NC(=O)[C@H](CCCNC(=N)N)NC(=O)[C@H](CC1CCCCC1)NC(=O)[C@H](CC1CCCCC1)NC(=O)[C@H](Cc1ccccc1)NC(=O)CCS)C(=O)N1CCC[C@H]1C(=O)N[C@@H](CC(N)=O)C(=O)N[C@@H](CC(=O)O)C(=O)N[C@@H](CCCCN)C(N)=O) [Mpr-F(Cha) (Cha)RAPNDK-NH2]	40
[Mpa]F[Cha][Cha]RN-NH2 (SMILES N=C(N)NCCC[C@H](NC(=O)[C@H](CC1CCCCC1)NC(=O)[C@H](CC1CCCCC1)NC(=O)[C@H](Cc1ccccc1)NC(=O)CCS)C(=O)N[C@@H](CC(N)=O)C(N)=O) [Mpr-F(Cha) (Cha)RN-NH2]	100
[Mpa]F[Cha][Cha]RNPNDK-OH (SMILES N=C(N)NCCC[C@H](NC(=O)[C@H](CC1CCCCC1)NC(=O)[C@H](CC1CCCCC1)NC(=O)[C@H](Cc1ccccc1)NC(=O)CCS)C(=O)N[C@@H](CC(N)=O)C(=O)N1CCC[C@H]1C(=O)N[C@@H](CC(N)=O)C(=O)N[C@@H](CC(=O)O)C(=O)N[C@@H](CCCCN)C(=O)O) [Mpr-F(Cha) (Cha)RNPNDK]	30
{Cam‑Mpr}-FLLR-NH2 [[Cam-Mpr]-FLLR-NH2]	1000
Pivaloyl-FLLR-NH2 [Pivaloyl-FLLR-NH2]	1000
SMeMpr-F[Cha][Cha]RKPNDK-NH2 (SMILES CSCCC(=O)N[C@@H](Cc1ccccc1)C(=O)N[C@@H](CC1CCCCC1)C(=O)N[C@@H](CC1CCCCC1)C(=O)N[C@@H](CCCNC(=N)N)C(=O)N[C@@H](CCCCN)C(=O)N1CCC[C@H]1C(=O)N[C@@H](CC(N)=O)C(=O)N[C@@H](CC(=O)O)C(=O)N[C@@H](CCCCN)C(N)=O) [(SMeMpr)-F(Cha)(Cha)RKPNDK-NH2]	10
[Mpa]F[Cha][Cha]RFPNDK-NH2 (SMILES N=C(N)NCCC[C@H](NC(=O)[C@H](CC1CCCCC1)NC(=O)[C@H](CC1CCCCC1)NC(=O)[C@H](Cc1ccccc1)NC(=O)CCS)C(=O)N[C@@H](Cc1ccccc1)C(=O)N1CCC[C@H]1C(=O)N[C@@H](CC(N)=O)C(=O)N[C@@H](CC(=O)O)C(=O)N[C@@H](CCCCN)C(N)=O) [Mpr-F(Cha) (Cha)RFPNDK-NH2]	> 100
[Mpa]F[Cha][Cha]RNPNDK-NH2 (SMILES N=C(N)NCCC[C@H](NC(=O)[C@H](CC1CCCCC1)NC(=O)[C@H](CC1CCCCC1)NC(=O)[C@H](Cc1ccccc1)NC(=O)CCS)C(=O)N[C@@H](CC(N)=O)C(=O)N1CCC[C@H]1C(=O)N[C@@H](CC(N)=O)C(=O)N[C@@H](CC(=O)O)C(=O)N[C@@H](CCCCN)C(N)=O) [Mpr-F(Cha) (Cha)RNPNDK-NH2]	25
[Mpa]F[Cha][Cha]RKPNDA-NH2 (SMILES C[C@H](NC(=O)[C@H](CC(=O)O)NC(=O)[C@H](CC(N)=O)NC(=O)[C@@H]1CCCN1C(=O)[C@H](CCCCN)NC(=O)[C@H](CCCNC(=N)N)NC(=O)[C@H](CC1CCCCC1)NC(=O)[C@H](CC1CCCCC1)NC(=O)[C@H](Cc1ccccc1)NC(=O)CCS)C(N)=O) [Mpr-F(Cha) (Cha)RKPNDA-NH2]	50
[Mpa]F[Cha][Cha]RKPNEK-NH2 [Mpr-P(Cha) (Cha)RKPNEK-NH2]	10
